Reference: patent publication US20070072239A1 (Pfizer, published 2007)

Target: T1, Wnt3 (human, UniProt P56703 22-355 at identity 1.00), limits assumed)
T1 chain: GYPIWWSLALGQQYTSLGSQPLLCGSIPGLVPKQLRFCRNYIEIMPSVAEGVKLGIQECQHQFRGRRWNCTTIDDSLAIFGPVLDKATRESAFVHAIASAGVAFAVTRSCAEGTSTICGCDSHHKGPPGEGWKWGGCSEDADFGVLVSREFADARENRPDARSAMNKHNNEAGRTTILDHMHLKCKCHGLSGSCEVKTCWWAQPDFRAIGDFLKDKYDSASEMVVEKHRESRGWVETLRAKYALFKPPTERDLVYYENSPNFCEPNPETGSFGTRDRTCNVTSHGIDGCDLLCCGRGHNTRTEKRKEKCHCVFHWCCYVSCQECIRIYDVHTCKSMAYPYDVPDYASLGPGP
Assay: cell-based or functional assay

B1: hOB SFRP-1 (human osteoblast secreted frizzled-related protein-1), wild-type full length (receptor)
chain: SEYDYVSFQSDIGPYQSGRFYTKPPQCVDIPADLRLCHNVGYKKMVLPNLLEHETMAEVKQQASSWVPLLNKNCHAGTQVFLCSLFAPVCLDRPIYPCRWLCEAVRDSCEPVMQFFGFYWPEMLKCDKFPEGDVCIAMTPPNATEASKPQGTTVCPPCDNELKSEAIIEHLCASEFALRMKIKEVKKENGDKKIVPKKKKPLKLGPIKKKDLKKLVLYLKNGADCPCHQLDNLSHHFLIMGRKVKSQYLLTAIHKWDKKNKEFKNFMKKMKNHECPTFQSVFK
inhibition of the Wnt-mediated upregulation of the 16xTCF-Luciferase reporter in U2OS cells: 90 % inhibition

B2: human SFRP-3 (receptor)
chain: AACEPVRIPLCKSLPWNMTKMPNHLHHSTQDNAILAIEQFEGLLGTHCSPDLLFFLCAMYAPICTIDFQHEPIKPCKSVCERARQGCEPILIKYRHSWPENLACEELPVYDRGVCISPEAIVTADGADFPMDSSNGNCRGASSERCKCKPIRATQKTYFRNNYNYVIRAKVKEIKTKCHDVTAVVEVKEILKSSLVNIPRDTVNLYTSSGCLCPPLNVNEEYIIMGYEDEERSRLLLVEGSIAEKWKDRLGKKVKRWDMKLRHLGLSKSDSSNSDSTQSQKSGRNSNPRQARN
Wnt3 antagonist function relative to SFRP-1 (TCF-Luciferase reporter) (% less active): 60

B3: SFRP-1 CRD mutant KKMVL to NMTKM (receptor)
chain: SEYDYVSFQSDIGPYQSGRFYTKPPQCVDIPADLRLCHNVGYNMTKMPNLLEHETMAEVKQQASSWVPLLNKNCHAGTQVFLCSLFAPVCLDRPIYPCRWLCEAVRDSCEPVMQFFGFYWPEMLKCDKFPEGDVCIAMTPPNATEASKPQGTTVCPPCDNELKSEAIIEHLCASEFALRMKIKEVKKENGDKKIVPKKKKPLKLGPIKKKDLKKLVLYLKNGADCPCHQLDNLSHHFLIMGRKVKSQYLLTAIHKWDKKNKEFKNFMKKMKNHECPTFQSVFK
loss of Wnt3 antagonist activity relative to SFRP-1 (TCF-Luciferase reporter) (% loss of activity): 60

B4: SFRP-1 CRD mutant … to … (receptor)
chain: SEYDYVSFQSDIGPYQSGRFYTKPPQCVDIPADLRLCKSLPWNMTKMPNLLEHETMAEVKQQASSWVPLLNKNCHAGTQVFLCSLFAPVCLDRPIYPCRWLCEAVRDSCEPVMQFFGFYWPEMLKCDKFPEGDVCIAMTPPNATEASKPQGTTVCPPCDNELKSEAIIEHLCASEFALRMKIKEVKKENGDKKIVPKKKKPLKLGPIKKKDLKKLVLYLKNGADCPCHQLDNLSHHFLIMGRKVKSQYLLTAIHKWDKKNKEFKNFMKKMKNHECPTFQSVFK
loss of Wnt3 antagonist activity relative to SFRP-1 (TCF-Luciferase reporter) (% loss of activity): 45

B5: SFRP-1 CRD mutant LLEHE (amino acids 81-85) to HLHHS (receptor)
chain: SEYDYVSFQSDIGPYQSGRFYTKPPQCVDIPADLRLCHNVGYKKMVLPNHLHHSTMAEVKQQASSWVPLLNKNCHAGTQVFLCSLFAPVCLDRPIYPCRWLCEAVRDSCEPVMQFFGFYWPEMLKCDKFPEGDVCIAMTPPNATEASKPQGTTVCPPCDNELKSEAIIEHLCASEFALRMKIKEVKKENGDKKIVPKKKKPLKLGPIKKKDLKKLVLYLKNGADCPCHQLDNLSHHFLIMGRKVKSQYLLTAIHKWDKKNKEFKNFMKKMKNHECPTFQSVFK
loss of Wnt3 antagonist activity relative to SFRP-1 (TCF-Luciferase reporter) (% loss of activity): 30

B6: SFRP-1 tyrosine 73 to phenylalanine mutant (receptor)
chain: SEYDYVSFQSDIGPYQSGRFYTKPPQCVDIPADLRLCHNVGFKKMVLPNLLEHETMAEVKQQASSWVPLLNKNCHAGTQVFLCSLFAPVCLDRPIYPCRWLCEAVRDSCEPVMQFFGFYWPEMLKCDKFPEGDVCIAMTPPNATEASKPQGTTVCPPCDNELKSEAIIEHLCASEFALRMKIKEVKKENGDKKIVPKKKKPLKLGPIKKKDLKKLVLYLKNGADCPCHQLDNLSHHFLIMGRKVKSQYLLTAIHKWDKKNKEFKNFMKKMKNHECPTFQSVFK
loss of Wnt antagonist function relative to SFRP-1 (TCF-Luciferase reporter) (% loss of function): 20

B7: SFRP-1 tyrosine 73 to alanine mutant (receptor)
chain: SEYDYVSFQSDIGPYQSGRFYTKPPQCVDIPADLRLCHNVGAKKMVLPNLLEHETMAEVKQQASSWVPLLNKNCHAGTQVFLCSLFAPVCLDRPIYPCRWLCEAVRDSCEPVMQFFGFYWPEMLKCDKFPEGDVCIAMTPPNATEASKPQGTTVCPPCDNELKSEAIIEHLCASEFALRMKIKEVKKENGDKKIVPKKKKPLKLGPIKKKDLKKLVLYLKNGADCPCHQLDNLSHHFLIMGRKVKSQYLLTAIHKWDKKNKEFKNFMKKMKNHECPTFQSVFK
Wnt antagonist function compared to the wild type SFRP-1 (TCF-Luciferase reporter) (% of wild type SFRP-1): 40

B8: SFRP-1 tyrosine 73 to serine mutant (receptor)
chain: SEYDYVSFQSDIGPYQSGRFYTKPPQCVDIPADLRLCHNVGSKKMVLPNLLEHETMAEVKQQASSWVPLLNKNCHAGTQVFLCSLFAPVCLDRPIYPCRWLCEAVRDSCEPVMQFFGFYWPEMLKCDKFPEGDVCIAMTPPNATEASKPQGTTVCPPCDNELKSEAIIEHLCASEFALRMKIKEVKKENGDKKIVPKKKKPLKLGPIKKKDLKKLVLYLKNGADCPCHQLDNLSHHFLIMGRKVKSQYLLTAIHKWDKKNKEFKNFMKKMKNHECPTFQSVFK
Wnt antagonist function compared to the wild type SFRP-1 (TCF-Luciferase reporter) (% of wild type SFRP-1): 40

B9: SFRP-1 tyrosine 73 to aspartate mutant (receptor)
chain: SEYDYVSFQSDIGPYQSGRFYTKPPQCVDIPADLRLCHNVGDKKMVLPNLLEHETMAEVKQQASSWVPLLNKNCHAGTQVFLCSLFAPVCLDRPIYPCRWLCEAVRDSCEPVMQFFGFYWPEMLKCDKFPEGDVCIAMTPPNATEASKPQGTTVCPPCDNELKSEAIIEHLCASEFALRMKIKEVKKENGDKKIVPKKKKPLKLGPIKKKDLKKLVLYLKNGADCPCHQLDNLSHHFLIMGRKVKSQYLLTAIHKWDKKNKEFKNFMKKMKNHECPTFQSVFK
Wnt antagonist function compared to the wild type SFRP-1 (TCF-Luciferase reporter) (% of wild type SFRP-1): 40

B10: SFRP-1 tyrosine 73 to asparagine mutant (receptor)
chain: SEYDYVSFQSDIGPYQSGRFYTKPPQCVDIPADLRLCHNVGNKKMVLPNLLEHETMAEVKQQASSWVPLLNKNCHAGTQVFLCSLFAPVCLDRPIYPCRWLCEAVRDSCEPVMQFFGFYWPEMLKCDKFPEGDVCIAMTPPNATEASKPQGTTVCPPCDNELKSEAIIEHLCASEFALRMKIKEVKKENGDKKIVPKKKKPLKLGPIKKKDLKKLVLYLKNGADCPCHQLDNLSHHFLIMGRKVKSQYLLTAIHKWDKKNKEFKNFMKKMKNHECPTFQSVFK
Wnt antagonist function compared to the wild type SFRP-1 (TCF-Luciferase reporter) (% of wild type SFRP-1): 40

B11: SFRP-1 hyaluronan-binding domain mutant, distal lysine residues to alanine (receptor)
chain: SEYDYVSFQSDIGPYQSGRFYTKPPQCVDIPADLRLCHNVGYKKMVLPNLLEHETMAEVKQQASSWVPLLNKNCHAGTQVFLCSLFAPVCLDRPIYPCRWLCEAVRDSCEPVMQFFGFYWPEMLKCDKFPEGDVCIAMTPPNATEASKPQGTTVCPPCDNELKSEAIIEHLCASEFALRMKIKEVKKENGDKKIVPKKKKPLKLGPIAAADLAALVLYLKNGADCPCHQLDNLSHHFLIMGRKVKSQYLLTAIHKWDKKNKEFKNFMKKMKNHECPTFQSVFK
loss of Wnt3 antagonist activity relative to SFRP-1 (TCF-Luciferase reporter) (% loss of activity): 15

B12: SFRP-1 mutant with a total of 10 lysine residues in the hyaluronan domain changed into alanine (receptor)
chain: SEYDYVSFQSDIGPYQSGRFYTKPPQCVDIPADLRLCHNVGYKKMVLPNLLEHETMAEVKQQASSWVPLLNKNCHAGTQVFLCSLFAPVCLDRPIYPCRWLCEAVRDSCEPVMQFFGFYWPEMLKCDKFPEGDVCIAMTPPNATEASKPQGTTVCPPCDNELKSEAIIEHLCASEFALRMKIKEVKKENGDKKIVPAAAAPLALGPIAAADLAALVLYLKNGADCPCHQLDNLSHHFLIMGRKVKSQYLLTAIHKWDKKNKEFKNFMKKMKNHECPTFQSVFK
loss of Wnt3 antagonist activity relative to SFRP-1 (TCF-Luciferase reporter) (% loss of activity): 35

B13: 3' His tagged SFRP-1 (receptor)
chain: SEYDYVSFQSDIGPYQSGRFYTKPPQCVDIPADLRLCHNVGYKKMVLPNLLEHETMAEVKQQASSWVPLLNKNCHAGTQVFLCSLFAPVCLDRPIYPCRWLCEAVRDSCEPVMQFFGFYWPEMLKCDKFPEGDVCIAMTPPNATEASKPQGTTVCPPCDNELKSEAIIEHLCASEFALRMKIKEVKKENGDKKIVPKKKKPLKLGPIKKKDLKKLVLYLKNGADCPCHQLDNLSHHFLIMGRKVKSQYLLTAIHKWDKKNKEFKNFMKKMKNHECPTFQSVFKHHHHHH
loss of Wnt inhibitory function relative to SFRP-1 (TCF-Luciferase reporter) (% loss of function): 30

B14: human SFRP-2 (receptor)
chain: LFLFGQPDFSYKRSNCKPIPANLQLCHGIEYQNMRLPNLLGHETMKEVLEQAGAWIPLVMKQCHPDTKKFLCSLFAPVCLDDLDETIQPCHSLCVQVKDRCAPVMSAFGFPWPDMLECDRFPQDNDLCIPLASSDHLLPATEEAPKVCEACKNKNDDDNDIMETLCKNDFALKIKVKEITYINRDTKIILETKSKTIYKLNGVSERDLKKSVLWLKDSLQCTCEEMNDINAPYLVMGQKQGGELVITSVKRWQKGQREFKRISRSIRKLQC
inhibition of Wnt3-mediated upregulation of the 16xTCF-Luciferase activity, relative to SFRP-1 (% less active): 25

B15: SFRP-1/SFRP-2(1-295/285-295) chimera (receptor)
chain: SEYDYVSFQSDIGPYQSGRFYTKPPQCVDIPADLRLCHNVGYKKMVLPNLLEHETMAEVKQQASSWVPLLNKNCHAGTQVFLCSLFAPVCLDRPIYPCRWLCEAVRDSCEPVMQFFGFYWPEMLKCDKFPEGDVCIAMTPPNATEASKPQGTTVCPPCDNELKSEAIIEHLCASEFALRMKIKEVKKENGDKKIVPKKKKPLKLGPIKKKDLKKLVLYLKNGADCPCHQLDNLSHHFLIMGRKVKSQYLLTAIHKWDKKNKEFKRISRSIRKLQC
Wnt3 inhibitory activity relative to SFRP-1 (TCF-Luciferase reporter): ~20 % of SFRP-1 activity | loss of Wnt3 antagonist activity relative to SFRP-1 (TCF-Luciferase reporter): ~70 % loss of activity

B16: truncated SFRP-1 (Δ167-314) containing the CRD alone (receptor)
chain: SEYDYVSFQSDIGPYQSGRFYTKPPQCVDIPADLRLCHNVGYKKMVLPNLLEHETMAEVKQQASSWVPLLNKNCHAGTQVFLCSLFAPVCLDRPIYPCRWLCEAVRDSCEPVMQFFGFYWPEMLKCDKFPEGDVC
Wnt antagonist activity relative to full length SFRP-1 (TCF-Luciferase reporter, U2OS cells): ~80 % of full length SFRP-1 activity

B17: SFRP-1/SFRP-2(1-226)/(214-295) chimera (receptor)
chain: SEYDYVSFQSDIGPYQSGRFYTKPPQCVDIPADLRLCHNVGYKKMVLPNLLEHETMAEVKQQASSWVPLLNKNCHAGTQVFLCSLFAPVCLDRPIYPCRWLCEAVRDSCEPVMQFFGFYWPEMLKCDKFPEGDVCIAMTPPNATEASKPQGTTVCPPCDNELKSEAIIEHLCASEFALRMKIKEVKKENGDKKIVLETKSKTIYKLNGVSERDLKKSVLWLKDSLQCTCEEMNDINAPYLVMGQKQGGELVITSVKRWQKGQREFKRISRSIRKLQC
loss of Wnt3 antagonist activity relative to SFRP-1 (TCF-Luciferase reporter): ~40 % loss of activity
